Laboratory results from the DeepSol protein solubility set.

Assay: soluble on expression in E. coli; label from the status in PepcDB or PDB records

Soluble on expression in E. coli, not soluble:
MGSDKIHHHHHHMVSPVVARIIELLPDSCVGFIGKRILNMYLNKYADINVHGMENLKGIDKPIMFIGNHLSNSDGLVLNKVLKDYDVTFVAGVKLKGDAITNLGTYCVKTTEIKPNTADKDGIYRVIDILKSNHNILMFPEGTRSRTGAMIEAKRGPLFIAKLSKAIIVPVGICGSEKLLPINKEGNMSNENFHHAKVEVNIGKPFYFDKRMKEESKKDYEKRALDNAMYKIAELIPENYRGVYSDIKKVL, MGSDKIHHHHHHMVYPVKDIQSVRDLALLAIRNKVSLEQQVETLGFESETYDYSSLLADLKVLPPLDHPDPTHCLISGTGLTHLGSASARDKMHQQNLSNDSSVTDTMRIFQWGLQKGRPAEGQIGAQPEWFYKGDGSIVVRPGAELPLPPFAEDGGEEPEIAGLYVIGEDLKPYRIGFALGNEYSDHVMERRNYLYLAHSKLRFCSFGPALRTGELPKHLVGTSRLRRDGQIIWEKEFLSGEDNMCHSLANLEYHHFKYQQFLKAGDVHIHYFGTATLSFADGIQAQVNDEFEIEMKEFGHPLKNKLAHMQPELPIGSVITL, MGSDKIHHHHHHMWCRNLTVRYPDQDRDVLNDLTVSLRQGETTLLIGPSGSGKTTFLHTLAGLMPETIEAEVTGEWRADGTVGMLFQQPDDQFCMQTVGAEIAFSLENRSIPRDEMEERIRTVLKRVGLDLALTTQIAGLSGGMKQRLALACVLALEPDILLLDEPTAQLDPHGRRLMMELIEELHHNPNVTLVLIEHQLEECVTFADRVLVFREGQLRLDGSPLDVFEEKREDLTRHGIMCPLLYPYTLETIPLTIATARFLDGPPVARRPVANETTLDLTDVTIAHGKRMILDQISLTASAGEWIMLVGRNGAGKSTLLETLAKLLPAQSGTIKLFQTPLKKWRDRTFYRQVGFVFQQPEFQFLKQTVADELAISSPSPARSQVADALQHYRLEDVAAQSPLALSLGQKRRLSVATMLLERKAVLLLDEPTFGQDAETTAQILDVLHQAREAGTTLIMVTHDMELVYRYADRVVVIGEKHVQFDGAPDELFRNESLLEHNQLIRPVSVRYQQLEEVKHRAGKQFVARTP, MGSDKIHHHHHHMWIEQRLWTPEGGWTVTETSPGKASLVLYFAAPGALTPESILADLRVAYGNAPILGCTTGGEILGPEVLDDSIVVSALGFDKASVRMASRDLSDVSQSRETGAALARELAGEDLRAIFILSDGTKVNGDSLVAGCLSAVTSDVVVTGGLAGDGARFQTTAVGCSDAMRPGRVAAVGFYGDSLAIGHGSFGGWDEFGPPRTITRSAANVLYELDGEPALDLYKRYLGEEAQGLPGSALLFPLSIRPSGDDAGAEVVRTIVGIDEEAKSMIFAGDVPTGHLARLMRGNFDNLVDGAGRAAEAAAAIKGPSLGLLVSCIGRKLLMGQRIAEEVEIVSDVLGKEASLMGFYSYGEISPHGFTGKCELHNQTMTITTISER, MGSDKIHHHHHHMWKHVKQVDPEIYEVLVNELKRQEYGLELIASENFASLAVIETMGSMLTNKYAEGYPKKRYYGGCEWVDRAEERAIERAKRLFGAKFANVQPHSGSQANMAVYLALAQPGDTIMGMSLSHGGHLTHGAPVNFSGKIFKVVPYGVNLETETIDYDEVRRLALEHKPKIIVAGGSAYARIIDFKRFREIADEVGAYLMVDMAHFAGLVAAGIHPNPLEYAHVVTSTTHKTLRGPRGGLILTNDPEIAKAVDKTIFPGIQGGPLMHVIAAKAVCFKEAMTEEFKEYQKQVVKNAKKMAEEFQKRGYRIVSGGTDTHLFLVDLTPKDITGKAAEKALESCGITVNKNTIPNEKRSPFVASGIRIGTPAVTTRGMKEEEMEEIAEMIDLVLSNVIDENGTVKPEVREEVSKKVRELCERFPLYRDKIEGVEI, MGSDKIHHHHHHMWQFPLFETILIEQGQAKNISYHQQRYEKSLLKFYPKMKLQPFDLAKIIAKHTALFTHREGLIRCRIDYNHHDYVLQCFPYQQKVYRTFKPVFCDHIDYSLKFSDRTLLNNLLKQKEECDEIMIIRQGKVTDCSIGNLIFRQNNQWITPDKPLLEGTQRAKLLEQKKIIAREIFFEDLAQYEEIRLINAMNGL, MGSDKIHHHHHHMWTPCGRADGNANSPRQSQFALDDLIDIPTDFSLYSTALKKFSQGMERPMYRNFRIVPNIIFGRGSFNQLDDVLKDRRVTADSWMVFVVDDVFTGKPLEGRFPLRGRDLLLWVNVDDEPKTRYIDELVARIRAYSPTAPAGIAGIGGGSAMDIAKAVSLMLNNPGSSADYQGWDLIKNPAVYHVAVPTLAGTGAEISRTTILTGPEKKLGINSDYTLYDQILLDPELLAGVPKNQWFYTGMDCYIHDVESLNGTFINEFSKAYGEKSRDLCREVFLDDSPAKDDKLMMASYFGGMSIAYSQVGACHALSYGLSYVLGIHHGVGCCIAFDQLEEIYPEGVQEFRQMMEKHDIPLPRNLTKDLDSASMEKMVTTALNLVPLWENCLGPDWANIMTRERAMELYKKM, MGSDKIHHHHHHMYAAHPIKPLKAPKLKTQFLRRVFVGASIRRWNDQACPLEFVELDKQAHKAMIAYLLAKDLKDRGNDLDLDLLIKFFCFEFLERLVLTDIKPPIFYALQQTHSQELASYVVQSLQDEISMYFSLEELKEYLSHRPQILETQILESAHFYASKWEFDIIYHFNPNMYGVKEIKDKIDKQLHNNEHLFEGLFGEKEDLKKLVSMFGQLRFQKRWSQTPRVPQTSVLGHTLCVALMGYLLSFDLKACKSMRINHFLGGLFHDLPEILTRDIITPIKQSVAGLDHCIKEIEKKEMQNKVYSFVSLGVQEDLKYFTENEFKNRYKDKSNKIIFTKDAEELFTLYNSDEYLGVCGELLKVCDHLSAFLEAQISLSHGISSNDLIKGAQNLLELRSQTELLDLDLGKLFRDFK, MGSDKIHHHHHHMYANASSENGAVNVSDDGPPLRIIHCFRSPVGGVFRHVRDLIEEHVRQGHKVGIVCDSSTGGAHEERLFAQITPMLELGLTRLPIRRSISPGDLLALWKSYKHIKSLRPDILHGHSAKGGALARLIGSLLRANRYRVARLYSPHGGSLHYARNSLKGQLFLRLERFQEHFTDALCFVCNFEQETYETKVGKPRTRTAMIYNGVQESEFETVPPRDGAARFLYIGMLRDLKGPDVFIRAFAKMERSIGQPMSGVIVGDGPDRDKYAAMIATAGLSRRISMHAAMPARQAFELATTVVVPSRAEAMPYIVLEALAAGKTVIASHVGGIPEVLGEDSEALVPAGDADALARTMVKDAADADWAQRVMPHPDSFKAKFSTPVMADEMMKLYRDLLTT, MGSDKIHHHHHHMYEEIIEKLDLQMNRMISFLSKKMRLFFQDLEKRFTNRAILLYGPRGAGKTTFLLSMARKHGFLYVSGDEILLLDVPLHDLFQEIMKNYPGIIIDEVHLLKNWSTILKVLYDSFPDKVIWTSDSSSVLLRKGISDLSRRFVLIRMPLMSFREFIHFETGKTLRKLSSPFEVSIDYAAEALKEVDLMSLFRKYRETGTRPFYVEGNFREKLMNILQKAIYYDVPHFLGTVTENHLGVMKAIVGHLLHSKIPTINVESMCREWGVGKQKFYQLLQTMEEIELVNIVRKKRVEKPFSKGEKIFLSDPAMYYAFEGEIGNFREAFVVFALKEIGKIYAVKNEEEGDYVFEGIKIEVGGKSKKKKSSDFVIRDDVDLPVRNVIPMWMLGMLW, MGSDKIHHHHHHMYGKTELMMSNACGLDFGTSNSTVGWTRPGHPAALLPLEDGKLTLPSVIFFHAEDPLVSYGRAALDDYLAGYEGRLMRSLKSLLGTSMMEDSTEVMGQAMPFRKLLAHFIGELKARAERSAGTTFTRAVLGRPVFFIDEDPAADRLAEQTLAEIARDAGFRDIEFQYEPIAAAFDYEAKISDEELVLVVDIGGGTSDFSLVRLSPERAKRIDRREDILANGGVHIGGTDFDRALSLARAMPLLGLGSKLRSGKEMPSSQYFDLASWHTINLVYTRKAWSIVMDNYRDAADTVKLDRLIRLIRERAGHWLAIQMEAAKIALSGVDRTDVDLHRIEPELMLSITRDEFDESIGKLVAKTEKTVTDMLASAGVDGASVDTILFTGGSSSVPMLRHQLGQLLPRARRVEGDLFGGIGSGLALDAARKFG, MGSDKIHHHHHHMYIQIVFAVKGRNSLIHPSWENELHKYMTGFIQNNGQKLLAINGMPDHIHILIGMKPSCCLSDLIRELKKSSSSFIKDKKLSPYAFQWQEGYGAFSYSHSNLNQVIAYIMNQKEHHKKRTFKEEYLEFIQKFELEYNPKNLFEWMD, MGSDKIHHHHHHMYKFNPQRIQIGISACLLGEKVRFDGGHKNSTYCNQEIKQFFDYVPICPEMAIGLGAPRKSIRLVRDGETILVQSGDGSLDVTDKLNEYSENKVEELDFLGGYLLCAKSPTCGMERVTEYKIGTNNGSKSGIGVFARKLMERYPLLPVEEEGRLHDMVLRENFFTRVYAYHDWHLMKHEGLTKHKLVKFHSRYKYLLMAHSPTWYRELGPIVANIEDLEQSATRYFEGFMTALKINATRKNHTSTLQHIQGYFKKHLSKEQKTELSEAIMKYREGLLPLLVPITLINHYLREFPTPYIEEQVYLNPHPEALKLRYAY, MGSDKIHHHHHHMYKLNQNETPLFNALMEYVNRDTIPFHVPGHKKGNGIDKEFKNFIGENPFKIDVTVFKLVDSLHHPTGPIKKAQELAADAYGSKAAFYSVNGTSGAIQGMILSVVGDGDKIIVPRNVHKSVTAGIILSGAVPVYMHPEVDRRVGIAHGVSPETVGETLKNNPDAKAVLLINPTYYGVSTDIKKIADIVHSYDIPLIVDEAHGPHLSFNDRLPVSALKAGADMCAQSTHKIIGALTQMSLLHVNSDRIDMNRVQQIMNLLQTTSPSYILMASMDCARRQIALHGKELLDGTIDLCNYARREINKIPGFYCFGEEVLGKPGSYAFDPTKLTITCTDLGITGYDLDMLLANDYHIQVELSDLYNVLAVGSFGDTKENIDALINALRQISKSISSTVKNKKNSFIDIPDVPERILSPRDAFNGAKESMLIKDSVGKTSGEFLMAYPPGIPVLCPGEIITQEIIDYVSDLKAAGLYVQGTEDPDVNYIKVLK, MGSDKIHHHHHHMYKYKFTVFTPTYNRAHLLENLYNDLKAQTYDFNDFEWLIVDDGSSDSTKELVEKFISENKLNIRYIYKENGGKHTAINLGVKNADGELFFIVDSDDGLIKDSLEIANDEWDSLENKEGFSGVVGLCVYPSGDLIGTEMPEDKKICHFADLYFKYGVKGDKSIVFVTDELIKFPFPERKEVRFLPESVVWNEMSKYYKVICVNKPMIIRDYLDDGLTKNILSKNALRGRALEFLYLINQNTYPLSRYPYMWIKNYINLARYSLLSDSHYFGELRKVSDKLLYLALFPLGYYKYIGQRKLVSK, MGSDKIHHHHHHMYQVIANFSFQNFEHDPVILINQIINQWRYNGQIIGREFSVTYHTQPSAHFQVRLATPEQISLMPEWNNDQVTEALSQAAEKGVEFESFEIIGRDYQAEQTSENSNARFYILYTTHLDSCSPLYNGDDFCPVPLYRLLQKDQSLAQALIKWQENWQACDQLQMNGTILEQPALNEISEIDSNLAQLGIKLCREVERVTQVPTYYYLYRLGTDEAVEYQRKCSSCGAEWRLTEPLHQIFHFKCDKCRLISNLSWQLQK, MGSDKIHHHHHHMYRLMDRQQMPFLFRFLSDSELYAFKDGQIISTFNKCGLFFCRKGNVEVSLEDKHFQINPGDVYIYMASTLVHLLHKSEDAEGVMVEVDLDYIIPIVNRVINVENQLFMRKHPCISLSDKQRAHLEYLLDNLRERIEAEDVQEVNLQQQRLTLELIKSMGQTFCYEILNMYFANQPMQPLPQNKKDVIFQNFMLALFRLYRKERDVAYYARMQHITPRYFSTIIKEKSGNSALQWIVQMVITEAKQLLEGSDLSIKEIADQLNFPTQSFFGKYFKQYVGISPKEYRKGKLRIKDGI
